Where a SMILES comes first, the peptide text is derived from it. Bridges are numbered along the chain shown (N, C = ends). Where no end group is shown, it is not given here.

One may read the IC50 as the concentration needed to halve the response being measured.

Chain of RGS4 (P49798 whole entry, species assumed): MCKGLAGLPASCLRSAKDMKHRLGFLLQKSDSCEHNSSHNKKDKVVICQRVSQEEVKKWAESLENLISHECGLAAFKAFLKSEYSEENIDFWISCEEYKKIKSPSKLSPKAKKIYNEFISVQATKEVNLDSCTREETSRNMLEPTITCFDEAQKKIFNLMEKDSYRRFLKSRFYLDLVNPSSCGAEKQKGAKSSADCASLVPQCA

The first assay addresses RGS4 (Homo sapiens, UniProt P49798). Nature of the assay: Steady-state GTPase assay, RGS4-stimulated, CHO cell membranes expressing α2a AR. Type of assay: biochemical. As to conditions: RGS-stimulated GTPase activity. Also on record: key to Activity (inhibitory activity, relative scale): −: —(no inhibition); relative scale from—(no inhibition) to +++. The procedure: (§1) In some embodiments, the membrane assay comprises a GTPase assay (See e.g, Berman et al., J. Biol. Chem., 271:27209 [1996] and Berman et al., Cell 86:445 [1996]). In such embodiments, α2A adrenergic receptor expressing membranes are pre-incubated with γ-^32P GTP and RGS proteins. In some embodiments, membranes contain both α2A adrenergic receptor and Gαo subunits, allowing measurement of both Gi and Go-coupled RGS proteins. In some embodiments, a steady-state GTPase assay is utilized to assay RGS inhibitors (See e.g., Wise and Milligan, J. Biol. Chem., 272:24673 [1997]).
This example describes a novel method of assaying for inhibitors of RGS-mediated GTPase Acceleration. A modified version of the [^35S] GTPγS binding method described in Wieland et al., 1994 (Wieland et al., Methods Enzymol. 237:3 [1994]) was utilized, with the exception that an RGS protein was included to enhance the receptor stimulation of GTPγS binding. RGS-mediated enhancement of receptor-stimulated [^35S]GTPγS binding was determined in CHO cell membranes expressing high densities (10-20 pmol/mg) of receptor. The method is not limited to the alpha 2a adrenergic receptor or the CHO membrane described herein. The membrane can be from other cell types and/or expressing other G protein coupled receptors (e.g., including, but not limited to, other Gi coupled receptors).
The assay buffer was 50 mM Tris, 5 mM MgCl2, 1 mM EDTA, 100 mM NaCl, 1 mM DTT, pH 7.6. The reaction mixture also contained the following components. Some preferred embodiments include at least one of the components marked with an *. • 1. High nanomolar or low micromolar concentrations (typically 1 μM) of GDP.* • 2. 4 μg of Chinese hamster ovary (CHO) membranes expressing the alpha 2a adrenergic receptor (α2AAR) at a receptor density of ˜10-20 pmol/mg. α2AAR-CHO membranes were prepared as previously described (Wade et al., Mol. Pharmacol. 56: 1005 [1999]). Membranes were re-suspended in Tris/MgCl2/EGTA (TME) buffer (50 mM Tris, 10 mM MgCl2, 1 mM EGTA, pH 7.6) and were aliquoted before being frozen in liquid N2 and stored at −80° C. until use. The receptor density in the α2aAR-CHO membranes was determined by [^3H] yohimbine binding and Bradford assay (Bradford, Anal. Biochem. 72: 248 [1976]). • 3. 0.2 nM-50 nM [^35S]GTPγS. A low concentration with respect to the higher concentrations of G protein and GTP utilized is necessary*. • 4. Saturating concentration of agonist for the receptor type utilized. UK 14,304 (10 μM). • 5. RGS proteins at μM or high nM ranges. • 6. GTP at high nM or low μM ranges. This is the most critical component of this method, since the massive GTP hydrolysis accelerated by RGS promotes formation of the empty DRG state which is detected by the low concentration of [^35S]GTPγS.*
Activity was measured by use of CHO cell membranes expressing the α2a AR at high levels (10-20 pmol/mg) described in Example 1 above.
Subsequently, a series of constrained peptides (Table 3) was prepared and the inhibitory activity tested. The inhibitory activity is shown in Table 3 as a relative scale from—(no inhibition) to +++.
Consider VKTTGIVE, for which the “Inhibition of RGS-mediated GTPase acceleration (in words)” value is reported as “no activity”.

The assay is the same for the next values; noted with them: inhibition of RGS4-mediated GTPase acceleration.
As for “YJ6(Et) (VKCTSICE; bridge 3-7; also: Et modification, place not given here, cross-link 3-7: disulfide, thioether or lactam)”, the “Activity (inhibitory activity, relative scale)” value is reported as “−”.
Still for that read-out and setting: the same measure for “ES2(Et) (VKCTGFCE; cysteine pairing not given here; also: Et modification)”: “+++”; for “JO1(Et) (VKCTGICE; cysteine pairing not given here; also: Et modification)”: “−”.
The same measure, in the same setting: the same measure for “YJ15(Et) (VKCTGICE; bridge 3-7; also: Et modification, place not given here, cross-link 3-7: disulfide, thioether or lactam)”: “−”; for “YJ5(Et) (KCTSICE; cysteine pairing not given here; also: Et modification)”: “−”.
For the compound “YJ4(Et) (VKCTSICE; bridge 3-7; also: Et modification, place not given here, cross-link 3-7: disulfide, thioether or lactam)”, the “Activity (inhibitory activity, relative scale)” value is on record as “+++”.

Still in this assay, the particulars now being: steady-state membrane GTPase assay.
Regarding `CC[C@H](C)[C@@H]1NC(=O)CNC(=O)[C@H]([C@@H](C)O)NC(=O)[C@@H](NC(=O)[C@H](CCCCN)NC(=O)[C@@H](NC(C)=O)C(C)C)CSCCSC[C@@H](C(=O)N[C@@H](CCC(=O)O)C(N)=O)NC1=O` [JMRAc(Et)] (HELM PEPTIDE1{[ac].V.K.C.T.G.I.C.E.[am]}|CHEM1{[C(C[*:2])[*:1]]}$PEPTIDE1,CHEM1,4:R3-1:R1|PEPTIDE1,CHEM1,8:R3-1:R2$$$V2.0), the midpoint of inhibition, the IC50, lay at 88 µM.
Take `CC[C@H](C)[C@@H]1NC(=O)CNC(=O)[C@H]([C@@H](C)O)NC(=O)[C@@H](NC(=O)[C@H](CCCCN)NC(=O)[C@@H](NC(C)=O)C(C)C)CCC(=O)NCCCC[C@@H](C(=O)N[C@@H](CCC(=O)O)C(N)=O)NC1=O` [YJ14(lactam)] (HELM PEPTIDE1{[ac].V.K.E.T.G.I.K.E.[am]}$PEPTIDE1,PEPTIDE1,4:R3-8:R3$$$V2.0): the IC50 was 260 µM.
The same measure, in the same setting: the figure for `CC[C@H](C)[C@@H]1NC(=O)CNC(=O)[C@H]([C@@H](C)O)NC(=O)[C@@H](NC(=O)[C@H](CCCCN)NC(=O)[C@@H](NC(C)=O)C(C)C)CSCSC[C@@H](C(=O)N[C@@H](CCC(=O)O)C(N)=O)NC1=O` [Yja] (HELM PEPTIDE1{[ac].V.K.C.T.G.I.C.E.[am]}|CHEM1{[C([*:1])[*:2]]}$PEPTIDE1,CHEM1,4:R3-1:R1|PEPTIDE1,CHEM1,8:R3-1:R2$$$V2.0) is 79 µM.
The same measure, in the same setting: the figure for `CC[C@H](C)[C@@H]1NC(=O)CNC(=O)[C@H]([C@@H](C)O)NC(=O)[C@@H](NC(=O)[C@H](CCCCN)NC(=O)[C@@H](NC(C)=O)C(C)C)CSSC[C@@H](C(=O)N[C@@H](CCC(=O)O)C(N)=O)NC1=O` [Yjb] (HELM PEPTIDE1{[ac].V.K.C.T.G.I.C.E.[am]}$PEPTIDE1,PEPTIDE1,4:R3-8:R3$$$V2.0) is 26 µM; for `CC[C@H](C)[C@@H]1NC(=O)CNC(=O)[C@H]([C@@H](C)O)NC(=O)[C@@H](NC(=O)[C@H](CCCCN)NC(=O)[C@@H](NC(C)=O)C(C)C)CCCNC(=O)CC[C@@H](C(=O)N[C@@H](CCC(=O)O)C(N)=O)NC1=O` [YJ13(lactam)] (HELM PEPTIDE1{[ac].V.K.[Orn].T.G.I.E.E.[am]}$PEPTIDE1,PEPTIDE1,4:R3-8:R3$$$V2.0) it is 25 µM.

A further assay has as its target T1, RGS8 (Homo sapiens, UniProt P57771).
T1 sequence (P57771 1-180): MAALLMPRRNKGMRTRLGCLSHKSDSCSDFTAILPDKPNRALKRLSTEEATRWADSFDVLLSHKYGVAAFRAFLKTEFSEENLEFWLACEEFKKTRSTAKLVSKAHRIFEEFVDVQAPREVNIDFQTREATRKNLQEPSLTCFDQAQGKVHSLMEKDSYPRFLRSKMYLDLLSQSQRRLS
Kind of assay: Steady-state membrane GTPase assay, RGS8-stimulated. The assay is classed as biochemical.
Details: not given
The procedure:
as §1
In addition to the inhibitory activity against RGS4 mediated GTPase acceleration, three of the peptides found to be most inhibitory against RGS4 were tested for their ability to inhibit RGS8 stimulated GTPase activity.
On to `CC[C@H](C)[C@@H]1NC(=O)CNC(=O)[C@H]([C@@H](C)O)NC(=O)[C@@H](NC(=O)[C@H](CCCCN)NC(=O)[C@@H](NC(C)=O)C(C)C)CCC(=O)NCCCC[C@@H](C(=O)N[C@@H](CCC(=O)O)C(N)=O)NC1=O` [YJ14(lactam)] (HELM PEPTIDE1{[ac].V.K.E.T.G.I.K.E.[am]}$PEPTIDE1,PEPTIDE1,4:R3-8:R3$$$V2.0), for which the IC50 was 840 µM.
In turn, `CC[C@H](C)[C@@H]1NC(=O)CNC(=O)[C@H]([C@@H](C)O)NC(=O)[C@@H](NC(=O)[C@H](CCCCN)NC(=O)[C@@H](NC(C)=O)C(C)C)CCCNC(=O)CC[C@@H](C(=O)N[C@@H](CCC(=O)O)C(N)=O)NC1=O` [YJ13(lactam)] (HELM PEPTIDE1{[ac].V.K.[Orn].T.G.I.E.E.[am]}$PEPTIDE1,PEPTIDE1,4:R3-8:R3$$$V2.0) displayed an IC50 of 161 µM.
